Test results from a protein production outcome set (Wang et al. 2014).

Experiment: label from the status in PepcDB records

Sequence	protein production
MPYMTTDAKEVSGKSFDYIVVGGGTAGCSLAATLSEKYSVLVIERGGSPFGDPLVEERKYFGYSLLNTDEYSSVAQSFTSVDGIENYRGRVLGGSSAINGGFYSRASDEFVKKAGWDKGLVQESYKWVESKVVFMPELTQWQSVVQFGFLEAGFYPYNGYSLEHTQGTKIGGSIYDQCGKRHTSADLLGFGKPNCITVLLNTTVKSIIFDSSNKTRAVGVRFMESDGNSSKSYKVHVEQHRGEVILAAGALGSPQILLLSGIGPENHLKDFDIPVIVNLKEVGRKMSDNPAISLLVDRFSQNRTLEPPQVAAIAEGYKFILESEVLPTDITTTRISIAAKIAFPKSKGRLKLNSTNPRENPSVKFNYLENKADLDACLEMVLHLQHVARSETVTFFLGTQAHDKLVAGDEELKSFCIKNVRTYYHYHGGCVVGSVVDEEYKVNGVKRLRVVDGSTFEESPGTNPMATVLMLGRYQGIKILKEREEQEDTFLSPQGSPQPQP	failed
MPYVPTPKPVVDRMLELADVDETDVLYDLGSGDGRIVIRAARTHGARGVGIEIDPDLVKKARKNAKEAGVADLVEFRQGDLFEADISEATVVTLYLLPSVNQKLRPILFEQLSPGTPVVSHDFDMGRWAPDRTVDLEGDTVYRWTIPEEIPEDLDELEHHHHHH	not failed
MQAGNPMSLQSMLPYVTPPVVGAVIGYVTNDIAIRMLFRPLKPWRVFGIRVPLTPGVIPAGRHEFAATIGRMVGTHLVTGTDVARALGKDSFRRELQEAVSGKLDTLLDRDLGTVGSLLPEGFESWLRDGVDLAARRAGETVAGYLQGEDFRRELSLFLRDLEERVLPRELERILAGETGDAVRAGAGRALAALLQSRGVSRAVAGLVDDKLDELLASERPLRELLPPELVELATAQAREAMPVILGRVAEFVRSPEIRDTFEAKLREGVQQYLANLKGTLGFMAGFISVEKLNSYFPGLVGSVTDEVVRWLGEETTHRRVAAMVDQGLGRILDRPLAATVEQLPYRRVALLRRSIRRGALGVVRRPETAGFLLALAERELVRLAADPSRPILERLAPEDDPSRLREGLVGWLTDRLRDPGIRATLERIVAGRVEEWLFNRPLGRLSARISAEVRRDLDQLIYRQVADLLEREAPPLIDALDVARMVEEKINTLDILAVEGLLLSIMQKHFLYINLFGALLGFVMGSFNVLLMGLGR	failed
MQAPRLRVGIFDDGSSTVNMAEKLDSVGHYVTVLHAPEDIRDFELVVIDAHGVEGYVEKLSAFARRGQMFLHTSLTHGITVMDPLETSGGIVMSAHPIGQDRWVASALDELGETIVGLLVGELGGSIVEIADDKRAQLAAALTYAGFLSTLQRDASYFLDEFLGDPDVTSDIVMDSAQQFQALPSLDEVIAQYDSINNPGRQRLFRDLARRQAEISRAQDIELWAIQKEDR	not failed
MQASASNSSSYTVNASVLHVRAGSSTSHDIISRVYNGQSLNVIGEENGWYKININGKTGFVSGEFVSKNGTSNSNVSTTGGKNKVTADVLRVRTAPNTSSSVSGRVYEGQTLNVIGQENGWVKINHNGQVGYVSGEFVSGVSSNAGSSNSNTNNNNQESVKPASGNYTVNVSSLRVRTGPSTSHTTVGSVTKGQVVQVVGEVQDWFKINYAGQTAYVSKDYVTKGGSSDNVTQGNNQNNNQNNNVTVQTGGTYVVNATSLRVRTGPATYHSVIGGVLNGTTLNVIGSEGSWFKVNYQGKTGYVSSEFMKFVKGGTTTPEQPKQPEQPNQGAIGDYYINASALNVRSGEGTNYRIIGALPQGQKVQVISENSGWSKINYNGQTGYIGTRYLSKTPVGGAVDNNKPNNNQNNNQNNNNNTGNNSGNSSSILAYAKGMQGVPYVWGGTSANGVDCSGYIYHVFKKFGHNISRQSVAGYWGSLPQTSNPQPGDLIYFQNTYKSGPSHMGIYLGGGSFIQAGDKGVAIASLSNSYWKSHFLGYTKAPLEHHHHHH	not failed
MQAVLNFPDLSPELFSISLFGMEFALRWYALAYIAGIVIAWRLAVLATRRAALWPANTPPMAPARIEDLLTWIILGVILGGRLGFVLFYQPAYYLANPTEILMVWQGGMAFHGGLLGVVIAAWLYSLRHNIPKLSLADLITHTVAPGLLLGRLANFINAELWGRPSDLPWAVIFPGPAAQACPGVVGLCARHPSQLYEAALEGLLLGTLLLWLVWRRGALKRPGLITGVFLAGYGLSRFVVEFFRQPDAQFVTPGNPLGLAWQVGEYGLTMGQLLSLPMIALGLWFVLRARAVPA	failed
MQDERWNHPLYTTTAINDEELEGHAYIPGGLKVQTSSPMNDHPGTNPEQLLGLSLSTCLEATLEAVEKEHGLPHTGAVRVKVAFIGARAEYQFLVHAQVMVKGVDFDTAKAFTNEIENRCPVSKLLKNSGNYTIETVTDFKD	not failed
MQDIFEEIIDYLKGIWLKRRYIIIATWLICPIGWYFVAAMPNVYQSEARVYVDTQSLLRPLLKGLTVETNPDTQIRLMVKTLLSRPNLERISRMTDLDVQASTPAQYEAIIKNLKDNIKISSARRENIYTLSIEDEDPEMAKNIVRSALTVFIENTLGETRSDSDSAQKFLNTQIKDYENRLSNSEARLTSFKQKYSGILPDQSGGYYAKLNGNREKLKAIELDLLENKTRLDSAKKQLAQSVVADTGSDNKIKSENSIQTTYDDRINELEVLLDNLKLRYTEKHPDVIETSRNLEHLNKLRSSEIEKYLAQNNENTGSLKRLSANPVIQEVQIHVNQLENLIASLNVRADNYRQRIIELENRVHTLPEIEAELIALNRGYGITKEKYEELLSRKETAQLAQQADETTDKIQFRVIDPPRKATKPSGPKRFLLFGVVTLIGFAVGIGLSLLMSQLNPVATSTAQLSKITGVPIFGVISANENLGLQQWHKKKTFIFIGSNVLLLCLLVLFVSYFLFPDTIQAPLKRIF	failed
MQDILFDFISTYISLTEDEKNALLSLDLFRSVPKGTILLKEGQKSQESYFVLKGCIRIYYIIDGEEKTTAFYTEMDALTPPCVIHNAPSEYFISCIEDSILTVSNLEMEAEINSKFPKFELMCRMLSEELLAKQQIDFDAFKTSSPEQRYLNVLQNRPDLIQRVPQHQLASFLGIKPQSLSRLRARIVDKKS	not failed
MQDLTSAAAYYHQSMMMTTAKQNQPELPEQEQLKCPRCDSPNTKFCYYNNYNLSQPRHFCKNCRRYWTKGGALRNIPVGGGTRKSNKRSGSSPSSNLKNQTVAEKPDHHGSGSEEKEERVSGQEMNPTRMLYGLPVGDPNGASFSSLLASNMQMGGLVYESGSRWLPGMDLGLGSVRRSDDTWTDLAMNRMEKN	failed
MQDSRPHPHDWNVSTDEAKRIQRRLASEVTERALPDGGETVAGIDVSVRDDTAQAAVSVLRLPELDVVDEATHRCEVPFPYVPGLLSFREMPAVLPALERLHSTPDVFVTDSHGAAHPRRFGLACHLGVLLDAPAIGVAKSILVGAPQGELGPEKGSRVPLVDDGETVGTVLRTRTDVNPVYVSVGHRCTLDGAADLMLDCSPRYKIPEPTRQAHKLSRAEG	failed
MQDTPQRGQRSKVRWLVAGLMWAAIAINYIDRTVLSAAAPHIQKEFHLSAVEMGVVMSAFFWSYALLQLPAGILADRFGQKKVLGFAVLWWSLATAVTGLATGFKSLVGLRVALGVGEAGAYPSNAGITSRWFPKQERATVAAIFDSGSKLGSAIALPLIAWLLVTFDWKITFTVAGSLGIVWCVVWALVFRDSPAEHEGVNAAELAHIQKGLPPARGADAPAMPWTKLLTHRNVWAMCIGFFMINYNSYFFITWLPTYLVKERGMGLMEMGFMASLPLFVSMFVEVFAGWASDRVYASGRLSLTATRKLFLVIGLVMASSIGLAAFAQSAVVAVILLCIAKSGTTVAASQVWALPADVAPGNTVSMVAGLQNSVSNMGGVVGPIVTGAIVGATGSFIPALVFSAALIGLAILNYLFLLGKVEPIAFEPNPATLNPNSHGRSNADARA	failed
MQEAEAIYQSGMKILNGSTRKNQKREAYRYLQKAAGMNHTKALERVSYALLFGDYLTQNIQAAKEMFEKLTEEGSPKGQTGLGFLYASGLGVNSSQAKALVYYTFGALGGNLIAHMVLGYRYWAGIGVLQSCESALTHYRLVANHVASDISLTGGSVVQRIRLPDEVENPGMNSGMLEEDLIQYYQFLAEKGDVQAQVGLGQLHLHGGRGVEQNHQRAFDYFNLAANAGNSHAMAFLGKMYSEGSDIVPQSNETALHYFKKAADMGNPVGQSGLGMAYLYGRGVQVNYDLALKYFQKAAEQGWVDGQLQLGSMYYNGIGVKRDYKQALKYFNLASQGGHILAFYNLAQMHASGTGVMRSCHTAVELFKNVCERGRWSERLMTAYNSYKDDDYNAAVVQYLLLAEQGYEVAQSNAAFILDQREATIVGENETYPRALLHWNRAASQGYTVARIKLGDYHFYGFGTDVDYETAFIHYRLASEQQHSAQAMFNLGYMHEKGLGIKQDIHLAKRFYDMAAEASPDAQVPVFLALCKLGVVYFLQYIREANIRDLFTQLDMDQLLGPEWDLYLMTIIALLLGTVIAYRQRQHQDIPVPRPPGPRPAPPQQEGPPEQQPPQ	failed
